Results as given in patent publication US20030072795A1 (US Dept. of Health and Human Services, published 2003).

T1: recombinant human involucrin, P07476
T1 chain: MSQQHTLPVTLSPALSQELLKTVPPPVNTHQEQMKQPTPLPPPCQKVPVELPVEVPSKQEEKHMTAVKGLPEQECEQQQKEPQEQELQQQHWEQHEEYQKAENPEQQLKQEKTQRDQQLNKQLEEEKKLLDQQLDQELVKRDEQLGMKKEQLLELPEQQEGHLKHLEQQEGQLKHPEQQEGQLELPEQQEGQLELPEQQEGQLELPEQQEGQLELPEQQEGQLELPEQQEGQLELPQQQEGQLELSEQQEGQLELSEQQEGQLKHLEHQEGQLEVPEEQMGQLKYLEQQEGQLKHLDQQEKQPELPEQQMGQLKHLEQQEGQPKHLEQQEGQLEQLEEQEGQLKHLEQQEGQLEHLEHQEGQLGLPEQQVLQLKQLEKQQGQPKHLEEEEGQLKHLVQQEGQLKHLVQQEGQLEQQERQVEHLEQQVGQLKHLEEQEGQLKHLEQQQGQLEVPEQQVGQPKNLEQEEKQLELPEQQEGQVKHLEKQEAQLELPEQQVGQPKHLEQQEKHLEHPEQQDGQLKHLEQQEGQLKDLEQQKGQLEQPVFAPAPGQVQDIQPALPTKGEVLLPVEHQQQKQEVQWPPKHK

T2: recombinant full-length human transglutaminase 1 (TGase 1) enzyme (human, UniProt P22735 1-817, constitutively N-myristoylated and S-myristoylated or S-palmitoylated on its amino-terminal 10 kDa portion)
T2 construct: also called TGase I; TGAaseI
T2 sequence (looked up): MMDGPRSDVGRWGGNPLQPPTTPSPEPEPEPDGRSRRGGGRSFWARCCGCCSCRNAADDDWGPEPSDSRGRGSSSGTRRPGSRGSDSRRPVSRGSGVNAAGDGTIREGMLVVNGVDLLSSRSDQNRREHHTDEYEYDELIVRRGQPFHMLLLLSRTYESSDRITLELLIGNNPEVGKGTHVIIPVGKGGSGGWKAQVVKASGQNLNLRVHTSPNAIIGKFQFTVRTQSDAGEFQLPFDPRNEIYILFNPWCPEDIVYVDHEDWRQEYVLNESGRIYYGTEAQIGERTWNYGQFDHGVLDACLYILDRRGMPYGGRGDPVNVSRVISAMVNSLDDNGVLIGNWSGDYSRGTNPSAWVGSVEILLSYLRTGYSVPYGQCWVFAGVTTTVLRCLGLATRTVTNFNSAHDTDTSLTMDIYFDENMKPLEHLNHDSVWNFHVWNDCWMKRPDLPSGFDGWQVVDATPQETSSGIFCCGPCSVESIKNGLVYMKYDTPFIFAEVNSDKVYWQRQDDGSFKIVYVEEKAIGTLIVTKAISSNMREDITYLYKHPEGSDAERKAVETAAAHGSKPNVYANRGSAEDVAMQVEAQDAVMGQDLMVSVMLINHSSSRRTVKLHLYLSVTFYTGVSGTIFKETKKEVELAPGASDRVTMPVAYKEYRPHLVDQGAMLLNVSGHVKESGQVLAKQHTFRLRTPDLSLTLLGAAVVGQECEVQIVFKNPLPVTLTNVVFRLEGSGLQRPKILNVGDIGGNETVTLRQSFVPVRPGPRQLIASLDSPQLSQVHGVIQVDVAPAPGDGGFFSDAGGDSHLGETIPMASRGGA


What was measured:
[1] = biological target: recombinant human small proline rich protein 2 (SPR2)
[2] = biological target: succinylated casein
[3] = biological target: T1, recombinant human involucrin, P07476
[4] = biological target: T2, recombinant full-length human …; assay: 14C-putrescine labelling of involucrin Gln residues by TGase 1, tryptic peptide sequencing
Description: In this first set of experiments, the Gln residues of involucrin that were cross-linked by recombinant TGase 1 were analyzed in the absence of natural insect cell membranes and SLV. ¹⁴C-putrescine incorporation into involucrin was analyzed following trypsin digestion and separation of tryptic peptides on a C18 reverse phase HPLC column. Labeled peptide peaks were dried and identified by sequencing. The PTH derivative of (-glutamylputrescine isopeptide formed in the TGase reaction was identified as a distinct peak in the Porton LP 3000 gas-phase sequencer. (FIG. 7). A total of 40 tryptic peptides were reliably separated, of which 29 (arrows) were labeled by ¹⁴C-putrescine in a reaction with solubilized recombinant TGase 1 and involucrin. (FIG. 8A). Sequencing identified […] labeled Gln residues (Table 2, panel A), with a total of about 20 mol of putrescine incorporated/mol of involucrin (Table 2, panel A). In contrast to the 29 Gln residues found to be involved in the binding of involucrin to soluble TGase 1 in the experiments above, membrane-bound TGase 1 binds to involucrin through five specific Gln residues, as discussed in the following section.

Row | Binder | KM(app) of the protein substrate; 14C-putrescine incorporation by SLV-bound TGase 1 (0% PS) [1] | KM(app) of the protein substrate; 14C-putrescine incorporation by SLV-bound TGase 1 (15% PS) [1] | KM(app) of the protein substrate; 14C-putrescine incorporation by solubilized TGase 1 [1] | fold increase of KM after attachment of TGase 1 to SLV (0 or 15% PS) [1] | KM(app) of the protein substrate; 14C-putrescine incorporation by SLV-bound TGase 1 (0% PS) [2] | KM(app) of the protein substrate; 14C-putrescine incorporation by SLV-bound TGase 1 (15% PS) [2] | KM(app) of the protein substrate; 14C-putrescine incorporation by solubilized TGase 1 [2] | KM(app) of the protein substrate; 14C-putrescine incorporation by SLV-bound TGase 1 (15% PS) [3] | KM(app) of the protein substrate; 14C-putrescine incorporation by solubilized TGase 1 [3] | fold decrease of KM, SLV with 15% PS against solubilized TGase 1 and soluble involucrin [3] | kinetic parameters for involucrin as substrate, SLV-bound TGase 1 (0% PS) [3] | binding result [4]
1 | recombinant full-length human transglutaminase 1 (TGase 1) enzyme (protein) MMDGPRSDVGRWGGNPLQPPTTPSPEPEPEPDGRSRRGGGRSFWARCCGCCSCRNAADDDWGPEPSDSRGRGSSSGTRRPGSRGSDSRRPVSRGSGVNAAGDGTIREGMLVVNGVDLLSSRSDQNRREHHTDEYEYDELIVRRGQPFHMLLLLSRTYESSDRITLELLIGNNPEVGKGTHVIIPVGKGGSGGWKAQVVKASGQNLNLRVHTSPNAIIGKFQFTVRTQSDAGEFQLPFDPRNEIYILFNPWCPEDIVYVDHEDWRQEYVLNESGRIYYGTEAQIGERTWNYGQFDHGVLDACLYILDRRGMPYGGRGDPVNVSRVISAMVNSLDDNGVLIGNWSGDYSRGTNPSAWVGSVEILLSYLRTGYSVPYGQCWVFAGVTTTVLRCLGLATRTVTNFNSAHDTDTSLTMDIYFDENMKPLEHLNHDSVWNFHVWNDCWMKRPDLPSGFDGWQVVDATPQETSSGIFCCGPCSVESIKNGLVYMKYDTPFIFAEVNSDKVYWQRQDDGSFKIVYVEEKAIGTLIVTKAISSNMREDITYLYKHPEGSDAERKAVETAAAHGSKPNVYANRGSAEDVAMQVEAQDAVMGQDLMVSVMLINHSSSRRTVKLHLYLSVTFYTGVSGTIFKETKKEVELAPGASDRVTMPVAYKEYRPHLVDQGAMLLNVSGHVKESGQVLAKQHTFRLRTPDLSLTLLGAAVVGQECEVQIVFKNPLPVTLTNVVFRLEGSGLQRPKILNVGDIGGNETVTLRQSFVPVRPGPRQLIASLDSPQLSQVHGVIQVDVAPAPGDGGFFSDAGGDSHLGETIPMASRGGA | 25.3 µM | 22.8 µM | 13.2 µM | differed only by about a two-fold increase in KM if the PS content of SLV was 0 or 15% | 138 µM | 145 µM | 61.4 µM | 2.9 µM | 114 µM | an approximately 40-fold decreased KM | The kinetic parameters for involucrin as a substrate were immeasurably low when the SLV were formulated in the absence of PS | 
2 | recombinant human involucrin (other, UniProt P07476 1-585, looked up, Substrate of TGase 1) MSQQHTLPVTLSPALSQELLKTVPPPVNTHQEQMKQPTPLPPPCQKVPVELPVEVPSKQEEKHMTAVKGLPEQECEQQQKEPQEQELQQQHWEQHEEYQKAENPEQQLKQEKTQRDQQLNKQLEEEKKLLDQQLDQELVKRDEQLGMKKEQLLELPEQQEGHLKHLEQQEGQLKHPEQQEGQLELPEQQEGQLELPEQQEGQLELPEQQEGQLELPEQQEGQLELPEQQEGQLELPQQQEGQLELSEQQEGQLELSEQQEGQLKHLEHQEGQLEVPEEQMGQLKYLEQQEGQLKHLDQQEKQPELPEQQMGQLKHLEQQEGQPKHLEQQEGQLEQLEEQEGQLKHLEQQEGQLEHLEHQEGQLGLPEQQVLQLKQLEKQQGQPKHLEEEEGQLKHLVQQEGQLKHLVQQEGQLEQQERQVEHLEQQVGQLKHLEEQEGQLKHLEQQQGQLEVPEQQVGQPKNLEQEEKQLELPEQQEGQVKHLEKQEAQLELPEQQVGQPKHLEQQEKHLEHPEQQDGQLKHLEQQEGQLKDLEQQKGQLEQPVFAPAPGQVQDIQPALPTKGEVLLPVEHQQQKQEVQWPPKHK |  |  |  |  |  |  |  |  |  |  |  | binds
